Experimental findings from paper PMC3962550 are described below.

This assay deals with epidermal growth factor (EGF) receptor expressed in 32D mouse myeloid cells (32D/EGFR) (UniProt P00533).

B1: amphiregulin (ligand)
chain: SVRVEQVVKPPQNKTESENTSDKPKRKKKGGKNGKNRRNRKKKNPCNAEFQNFCIHGECKYIEHLEAVTCKCQQEYFGERCGEKSMK
On to B1, for which the EC50 of AR for IL3-independent proliferation of 32D/EGFR cells, without EGF worked out at 8.3 nM.
